In the DeepSol protein solubility set:

Assay: soluble on expression in E. coli; label from the status in PepcDB or PDB records

Row | Sequence | soluble on expression in E. coli
1 | MGSDKIHHHHHHVVVFCGMGTLGPSFPEVPWLRLGVMSTDPKPGAEHPHEVENLDNHECWRLLRSVSVGRLAVWVEDHPDIFPINYKVDHGTLVFRTADGTKLQAATGDTPVAVEADGVDADSGVAWSVVIKGQAAPVKNQQEVLDTVGLLLFPWQAGKKEHFVRITPDTVTGRRFKVTPPLTWWTPLDDATRSGFE | not soluble
2 | MGSDKIHHHHHHVYNEFFHLRTKPFELLPDPDFLYPSKAHRKALAYFEYGLSERSGFILLTGEVGSGKTTLIREMLKRDLGRMVLSKVFNTRVDSTQLVAMINDDFGLETAGRDKMVMLRDLNDFLIDQYAAGRRAVLVIDEAQNLSQELLEEVRMLSNLETDSAKLLQIILVGQPELRDLLRSPALVQLRQRIQVHCHIAPLSQEELREYVLFRLERAGNRDAMEWGEGVFGLMHEATRGIPRLVNILCDYVLLDAYAAGRRSINSAELQDLLAELDFERQFWPVDETSAPAPAAEQQRRTAVRRDASSVARRMMLMLQDLGQRLDVLERGYEKSGPDMLADMAERLGALEKRVTVLAGRVESLHAERMQRGAAPQVQPYRQKPERRKGWFRRVFGGD | not soluble
3 | MGSEKMIEICIDMEEGEPLGATPNDKLVITKIQAGTISEGKLRIGDQVKKVNGQNCKDCNDFFRALRFAAPCAKITVNRDEKKAEELEARVHIPEDRAKIIQRREGYVYELATLVWVQNGPKLGLGIKHFQNRVLVSRVDPGSLAEKCLVLGDHLCDVDGIPVSDKDVARDLLVKNIQEKGKVTFVVERPDSIDAKQWAKQALATNLMQPPSVQMNEDVKGIASQYRQALPGLKPPAKSAMSTGPNARRVSIIEQTQTHEIGHDHEGKALRKVK | soluble
4 | MGSHHHHHHDITSLYKKAGSAAAVLEENLYFQGSFTMRLKELGEFGLIDLIKKTLESKVIGDDTAPVEYCSKKLLLTTDVLNEGVHFLRSYIPEAVGWKAISVNVSDVIANGGLPKWALISLNLPEDLEVSYVERFYIGVKRACEFYKCEVVGGNISKSEKIGISVFLVGETERFVGRDGARLGDSVFVSGTLGDSRAGLELLLMEKEEYEPFELALIQRHLRPTARIDYVKHIQKYANASMDISDGLVADANHLAQRSGVKIEILSEKLPLSNELKMYCEKYGKNPIEYALFGGEDYQLLFTHPKERWNPFLDMTEIGRVEEGEGVFVDGKKVEPKGWKHF | soluble
5 | MGSHHHHHHSSGLVPRGSHMTIGIDKISFFVPPYYIDMTALAEARNVDPGKFHIGIGQDQMAVNPISQDIVTFAANAAEAILTKEDKEAIDMVIVGTESSIDESKAAAVVLHRLMGIQPFARSFEIKEACYGATAGLQLAKNHVALHPDKKVLVVAADIAKYGLNSGGEPTQGAGAVAMLVASEPRILALKEDNVMLTQDIYDFWRPTGHPYPMVDGPLSNETYIQSFAQVWDEHKKRTGLDFADYDALAFHIPYTKMGKKALLAKISDQTEAEQERILARYEESIIYSRRVGNLYTGSLYLGLISLLENATTLTAGNQIGLFSYGSGAVAEFFTGELVAGYQNHLQKETHLALLDNRTELSIAEYEAMFAETLDTDIDQTLEDELKYSISAINNTVRSYRN | soluble
6 | MGSIILKAFDESTEINGDSLDLGEIQLTPYKGRLTLELLKKPAHTSQEEPGLEQENLYNYTISIYNKTKQAKIKNFNIKPPYIFLNDTNIETGDVIEVTFTHKKDYTLPATIELTLDRLMNASGQAVAKENGKGMASIQSGNQRCELMVYNSDKKFIESCSMNREGKIISNPLKEGVYTFVFISSNNYLWRLNTLEQFEEIGLKEGIHFVKKEVEIKNGEIKDLGLIVVPELNEKELFFTDPDVASYAVVSENNRIGKDIVLRAKYSFRKPIESQTVKLLFRVPDQTFYVKDTLTIDGELVDSVNVSGSFIEVTTTKTEGVVRFNIRPTEAVVCYSNAYVEFKAEGRTVREPLGVVNEVVPYLTIGAPNVTSLEKVYVTGQTLPNLEVKIYDEGSLVGVTKANSTGAWNFQVSLGKDKSYSVHNLSARIEYNDQVIESETLEVIYKKSVPEIEKVTMIHSNQSLILYKNGEIVPKGVYTYVPSQSYTFIVDFVGDSAEEIENLCIVSNRNGEERKLDAKYDPQSKSWIATGSFGYNHVPGSFTVEYNLKKKRLIKEDGELNLEVLEQISTFADQFLYELKKENVMVGLLDENEIGFMLKEDTGGIAIVTIVIGDQPIEREKYEKMGYLFKEIDGKLGAVLLIKDETENKIFTSKVRLASNKTEDSVKSEDDDESSQKETPLVTKDERISMAATIIGELGNIAGSGKVVEAIDFISGIGTAVNTIAFTPANAVTDMGYVQKKLQESENISSEDKERLRDDLFLASGVYNFTVNANFIASLMDGHTRNGTMHKIIDIVIDKYDQYSLGDKLWEDIFGKNEDDRESGKSTKSGKGSSIKLPLQEQKTLVDPSGYVYETVPDNRITDATVTVYYKDENGEMILWNAEEFGQKNPLLTDENGFYAWDVPEGMWQVKVEKEGYETAYSEILPVPPVQTNVNIPLVSYEPPKVGHIYAYPEYIEIAFSKYVKHATLDSESIQLKQGENKVNIKIVYEDEEGNYSKKIKLIPAEKTSFEGKYTLNISKSITSYAGVAMQKAEIRDIEIVAEPKSIEILDKVEIELRKTVAIEIRVLPEEAAKGKKIIVTSGMEEIVSAEDVLLDERGRGKLKLKGNLPGTVDIDLRLEGSAVEKKIQATVKFPEDNGEIIEPPVVLNGDLNRNGIVNDEDYILLKNYLLRGNKLVIDLNVADVNKDGKVNSTDCLFLKKYILGLITI | not soluble
7 | MGSIPRVLISADRSSSGKTTISMGLMAALVSRGYKVQPFKVALDYIDPSYHTEITGRFCRNLDGYLMDEHGILDVYTHACETGGGADIAIIEGVRGLFEGFESLSDVGSTAQIAKILKCPVVFVINARSITRSAAALIGGYKNFDPDVEIAGVILNNIGGRRHAQKAKEAIEHYTGVPVLGIIPRDPSMQISMRHLGLMPALEGLEHHHHHH | not soluble
8 | MGSNTLLCAKWLRGLRPRSRVNPLLNRALAAVGAGSPAKGRQAAPLAPIPRSSPVKALDQLTFDNRFARLGDAFSTQVLPEPIADPRLVVASESAMALLDLDPAQAELPVFAELFSGHKLWEEADPRAMVYSGHQFGSYNPRLGDGRGLLLAEVLNDAGEHWDLHLKGAGQTPYSRMGDGRAVLRSSIREFLASEALHALGIATSRALCVIGSSTPVWRETRESAAMLTRLAQSHVRFGHFEYFYYTKQPEQQRVLIDHVLEQHYPECREAEQPYLAMFRTIVERNAELIARWQAYGFCHGVMNTDNMSILGITFDFGPYAFLDDFDANFICNHSDDRGRYSYANQVPIAHWNLSALAQALTTVIEVEPLKEALGLFLPLYQAHYLDLMRRRLGLTTAEDDDMVLVERLLQCMQRGGVDYSLFFRKLGEQPVAEALKVARDDFIDLAGFDAWGADYLARCGREPGNAEGRRERMHAVNPLYVLRNYLAQKAIEAAEAGDYSEVRRLHQVLARPFEEQPGMQAYAERPPEWGKHLEISCSSLEHHHHHH | soluble
9 | MGSQSETVCVTGASGFIGSWLVMRLLERGYTVRATVRDPTNVKKVKHLLDLPKAETHLTLWKADLADEGSFDEAIKGCTGVFHVATPMDFESKDPENEVIKPTIEGMLGIMKSCAAAKTVRRLVFTSSAGTVNIQEHQLPVYDESCWSDMEFCRAKKMTAWMYFVSKTLAEQAAWKYAKENNIDFITIIPTLVVGPFIMSSMPPSLITALSPITGNEAHYSIIRQGQFVHLDDLCNAHIYLFENPKAEGRYICSSHDCIILDLAKMLREKYPEYNIPTEFKGVDENLKSVCFSSKKLTDLGFEFKYSLEDMFTGAVDTCRAKGLLPPSHEKPVDGKT | soluble
10 | MGSSHHHHHHGGTGENLYFQGGSGDLLHFISLVIDLRDYPGYATCIRATEYPGLALCEYNAVAGMRYTVPLGYAASAVYFYLYHRPRLSFADRSLTKLHHYFYPSAGYSTPLGIIGGVICGAAECVQGLTPAALEATAAREKAAAVMAAEQYSQRHRAVKERLKAEQSFASKALAWLQLCEDPVQAELARMGLGEDSIAWETLLVPQGYLWTQLHSVVHDPARYRGYEAPVATGAAVPTSADERLSQPSGGANTPCPSPSGVLSLSRAYFTKPQVDAVVSRIGTLRTSPEEDRWMRSAGRCGAYGVFGMLLTWNSGGALFRAQMGLGLGVVIAGLASATRLDEVFAHL | not soluble
11 | MGSSHHHHHHGGTGENLYFQGGSGSRFYTAKEVREHAFHDDAYVSLNGKVLDLTPLIAAYKEMPKFAHLAKPLVQVAGTDISHWWDAEANDLRSCVDVNSGMRTYAMPLGRVPHMPTIYPDSNIDLNYDIPWWKDPQYIIGALTSRTRRIRIVNTLTGDETTLDVCAEETLEELLRERYLSINAHARSYTWVRLDPDPRELDMSRTLEDNGIHDEADSFEDLGLNADYYIPAIHLYYNDDLTEA | soluble
